Results taken from the supplement of paper PMC10899765.
Values joined by “and” are separate entries in the source; they are usually repeats but may differ in a detail not shown here. Equal values may be shown once.

What was measured:
Conditions in all cases: 20 nM; 72 h
[1] = system: MCF10A; test: 5+ nucleoli phenotype percent effect (relative to siNT 0% and siKIF11 100%); higher = more cells with five or more nucleoli
Procedure: (§1)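 After 72 h, cells were fixed and stained with Hoechst and anti-fibrillarin, and nucleoli per nucleus were counted with CellProfiler. Values are plate-adjusted percent effect for the one-nucleolus and 5+ nucleoli phenotypes, normalised to siNT (0%) and to the positive controls siNOL11 or siKIF11 (100%), as the mean of biological triplicates. Percent viability is the nuclei count relative to siNT.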

[2] = system: MCF10A; test: percent viability (nuclei count relative to siNT); higher = more viable cells
Procedure: as §1

[3] = system: MCF10A; test: one-nucleolus phenotype percent effect (relative to siNT 0% and siNOL11 100%); higher = more cells with one nucleolus (ribosome biogenesis inhibition)
Procedure: as §1

| Sequence | 5+ nucleoli phenotype percent effect [1] | percent viability [2] | one-nucleolus phenotype percent effect [3] |
| --- | --- | --- | --- |
| ACGGGGAGUCAGGCAGUGGUGGA [hsa-miR-6777-5p] | -32.1% | 28.5% | 32% |
| ACGGGUUAGGCUCUUGGGAGCU [hsa-miR-125b-1-3p] | 15.9% | 53.9% | 13.6% |
| ACGGUGCUGGAUGUGGCCUUU [hsa-miR-1250] | -44.5% | 25% | 57.9% |
| ACGUUGGCUCUGGUGGUG [hsa-miR-1306-3p] | -4.59% | 18.4% | 38.2% |
| ACGUUUGAAUGCUGUACAAGGC [hsa-miR-5707] | 56.2% | 185% | -26.7% |
| ACUAAAGGAUAUAGAAGGUUUU [hsa-miR-4509] | 5.5% | 103% | -25.3% |
| ACUCAAAACCCUUCAGUGACUU [hsa-miR-616-5p] | 21.5% | 93.6% | -11.3% |
| ACUCAAAAGAUGGCGGCACUUU [hsa-miR-371b-5p] | 19.5% | 96.1% | -20.5% |
| ACUCAAAAUGGGGGCGCUUUCC [hsa-miR-373-5p] | 34.3% | 83.7% | -11.8% |
| ACUCAAACUGUGGGGGCACU [hsa-miR-371a-5p] | 15.8% | 79.6% | 3.21% |
| ACUCAGUCAUGGUCAUU [hsa-miR-4264] | 26.3% | 95.1% | -7.28% |
| ACUCAUUCUCCUCUGUCCAG [hsa-miR-6758-3p] | 81.4% | 147% | -26.2% |
| ACUCCAAGAAGAAUCUAGACAG [hsa-miR-5695] | 39.3% | 183% | -26.7% |
| ACUCCAGCCCCACAGCCUCAGC [hsa-miR-766-3p] | -19.8% | 39% | 15.5% |
| ACUCCAGUUUUAGUUCUCUUG [hsa-miR-3925-3p] | 38% | 63.4% | -22.1% |
| ACUCCAUUUGUUUUGAUGAUGGA [hsa-miR-136-5p] | 34.2% | 107% | -13% |
| ACUCGCAUCCUUCCCUUGGCAG [hsa-miR-6814-3p] | 32.1% | 118% | -25.3% |
| ACUCGGCUGCGGUGGACAAGU [hsa-miR-4638-5p] | -4.89% | 39.5% | 3.97% |
| ACUCUAGCUGCCAAAGGCGCU [hsa-miR-1251] | 11.2% | 80.4% | -4.32% |
| ACUCUUUCCCUGUUGCACUAC [hsa-miR-130b-5p] | 16.1% | 54.3% | -13.5% |
| ACUGAAUCCUCUUUUCCUCAG [hsa-miR-5187-3p] | 0.116% | 67.9% | -12.2% |
| ACUGACAGGAGAGCAUUUUGA [hsa-miR-3660] | 21.1% | 55% | -1.95% |
| ACUGAGCCUCUCUCUCUCCAG [hsa-miR-6751-3p] | -22.5% | 65.4% | -10.3% |

| Sequence | 5+ nucleoli phenotype percent effect [1] | percent viability [2] | one-nucleolus phenotype percent effect [3] |
| --- | --- | --- | --- |
| ACUGAUUAUCUUAACUCUCUGA [hsa-miR-3920] | 38.1% | 82% | -37.8% |
| ACUGAUUUCUUUUGGUGUUCAG [hsa-miR-29a-5p] | 23.5% | 134% | -23.9% |
| ACUGCAGUGAAGGCACUUGUAG [hsa-miR-17-3p] | 12.2% | 70.9% | -6.73% |
| ACUGCAUUAUGAGCACUUAAAG [hsa-miR-20a-3p] | 43.3% | 138% | -23.3% |
| ACUGCCCCAGGUGCUGCUGG [hsa-miR-324-3p] | 37.7% | 68% | -7.87% |
| ACUGCCCUAAGUGCUCCUUCUGG [hsa-miR-18a-3p] | 4.11% | 58.7% | -2.39% |
| ACUGCUGAGCUAGCACUUCCCG [hsa-miR-93-3p] | -7.82% | 33.2% | 0.758% |
| ACUGGAAUUGGAGUCAAAA [hsa-miR-6128] | 36.5% | 105% | -18.6% |
| ACUGGACUAGGAGUCAGAAGG [hsa-miR-378i] | -12.9% | 32.1% | 4.21% |
| ACUGGACUUAGGGUCAGAAGGC [hsa-miR-422a] | -13.7% | 37.8% | 12.5% |
| ACUGGACUUGGAGCCAGAAG [hsa-miR-378f] | 33.7% | 45.3% | -12.4% |
| ACUGGACUUGGAGGCAGAA [hsa-miR-378b] | -14.2% | 36.5% | 9.39% |
| ACUGGACUUGGAGUCAGAAA [hsa-miR-378d] | 9.46% and 4.63% | 25.4% and 31.6% | 2.4% and 10.6% |
| ACUGGACUUGGAGUCAGAAGAGUGG [hsa-miR-378c] | -4.56% | 22.4% | -8.35% |
| ACUGGACUUGGAGUCAGAAGG [hsa-miR-378a-3p] | 22.6% | 45.2% | 2.26% |
| ACUGGACUUGGAGUCAGAAGGC [hsa-miR-378a-3p] | 13.6% | 66.7% | -2.19% |
| ACUGGACUUGGAGUCAGGA [hsa-miR-378e] | -3.63% | 26.4% | 11.5% |
| ACUGGACUUGGUGUCAGAUGG [hsa-miR-378h] | 41% | 80% | -14.6% |
| ACUGGAUUUGGAGCCAGAA [hsa-miR-378j] | -1.17% | 42.3% | -17.6% |
| ACUGGCAGAACACUGAAGCAGC [hsa-miR-6868-5p] | -21.7% | 26.9% | 34.1% |
| ACUGGCAUGCUGCAUUUAUAUA [hsa-miR-4799-3p] | 50.9% | 66.3% | -19.8% |
| ACUGGCAUUAGUGGGACUUUU [hsa-miR-5588-5p] | 33.4% | 46.1% | -3.93% |
